# Measured values as given in article PMC6502868, “Architecture of Saccharomyces cerevisiae SAGA complex” (Cell Discovery, 2019).
# T1: Spt7 (S. cerevisiae, UniProt P35177 1-1332)
# T1 construct: Spt7, S. cerevisiae, second largest SAGA subunit (SPT module); source: endogenous, in the native SAGA complex purified from fermented S. cerevisiae cells
# T1 sequence (looked up): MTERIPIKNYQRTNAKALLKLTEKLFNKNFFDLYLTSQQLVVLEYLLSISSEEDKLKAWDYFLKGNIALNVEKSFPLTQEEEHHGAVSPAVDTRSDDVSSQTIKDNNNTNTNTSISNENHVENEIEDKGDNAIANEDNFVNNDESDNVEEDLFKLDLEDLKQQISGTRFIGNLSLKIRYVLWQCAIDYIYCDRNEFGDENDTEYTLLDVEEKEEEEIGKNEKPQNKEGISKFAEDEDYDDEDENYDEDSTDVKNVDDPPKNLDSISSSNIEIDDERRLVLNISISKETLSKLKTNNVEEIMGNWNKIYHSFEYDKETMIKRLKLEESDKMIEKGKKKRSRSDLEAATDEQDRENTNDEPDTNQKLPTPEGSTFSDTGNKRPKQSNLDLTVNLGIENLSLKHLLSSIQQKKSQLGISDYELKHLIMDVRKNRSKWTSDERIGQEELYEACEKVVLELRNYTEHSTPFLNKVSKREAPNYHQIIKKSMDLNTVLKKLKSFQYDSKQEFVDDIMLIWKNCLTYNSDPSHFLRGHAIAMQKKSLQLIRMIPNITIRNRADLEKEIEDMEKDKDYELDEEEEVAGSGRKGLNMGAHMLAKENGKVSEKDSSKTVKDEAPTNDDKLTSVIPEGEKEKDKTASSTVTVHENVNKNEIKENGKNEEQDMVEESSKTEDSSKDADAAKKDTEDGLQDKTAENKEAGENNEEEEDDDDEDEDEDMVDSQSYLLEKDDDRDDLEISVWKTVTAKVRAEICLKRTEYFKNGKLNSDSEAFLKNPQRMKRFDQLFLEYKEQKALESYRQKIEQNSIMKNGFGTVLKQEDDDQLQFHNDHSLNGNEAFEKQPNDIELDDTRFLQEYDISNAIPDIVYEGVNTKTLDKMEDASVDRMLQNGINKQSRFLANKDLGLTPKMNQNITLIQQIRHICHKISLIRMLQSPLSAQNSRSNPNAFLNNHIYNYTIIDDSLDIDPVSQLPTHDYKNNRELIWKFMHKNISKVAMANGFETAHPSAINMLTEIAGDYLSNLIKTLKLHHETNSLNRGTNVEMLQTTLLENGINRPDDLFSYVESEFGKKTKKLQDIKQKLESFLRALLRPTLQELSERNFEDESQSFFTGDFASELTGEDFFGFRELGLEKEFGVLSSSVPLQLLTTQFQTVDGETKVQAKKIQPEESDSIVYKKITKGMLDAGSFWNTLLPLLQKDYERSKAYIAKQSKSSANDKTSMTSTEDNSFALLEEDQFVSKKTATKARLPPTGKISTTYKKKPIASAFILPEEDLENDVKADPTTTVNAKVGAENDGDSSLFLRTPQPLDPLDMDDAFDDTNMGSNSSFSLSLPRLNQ
# What was measured:
# [1] = target: T1, Spt7; test: cross-linking; chemical cross-linking of proteins coupled with mass spectrometry (CXMS) on the purified native SAGA complex; 139 unique inter- and 184 unique intra-subunit cross-linking pairs; conditions: both partners purified
# [2] = target: T2, Tra1 (S. cerevisiae, UniProt P38811 1-3744); test: as above; conditions: both partners purified
# T2 construct: Tra1, S. cerevisiae, largest SAGA subunit (SPT module), 3744 residues as printed; Endogenous subunit; Purification methods and any tag are in the Supplementary Materials; also called Tra1_(SAGA); lobe A; source: endogenous, in the native SAGA complex purified from fermented S. cerevisiae cells
# T2 sequence (P38811 whole entry): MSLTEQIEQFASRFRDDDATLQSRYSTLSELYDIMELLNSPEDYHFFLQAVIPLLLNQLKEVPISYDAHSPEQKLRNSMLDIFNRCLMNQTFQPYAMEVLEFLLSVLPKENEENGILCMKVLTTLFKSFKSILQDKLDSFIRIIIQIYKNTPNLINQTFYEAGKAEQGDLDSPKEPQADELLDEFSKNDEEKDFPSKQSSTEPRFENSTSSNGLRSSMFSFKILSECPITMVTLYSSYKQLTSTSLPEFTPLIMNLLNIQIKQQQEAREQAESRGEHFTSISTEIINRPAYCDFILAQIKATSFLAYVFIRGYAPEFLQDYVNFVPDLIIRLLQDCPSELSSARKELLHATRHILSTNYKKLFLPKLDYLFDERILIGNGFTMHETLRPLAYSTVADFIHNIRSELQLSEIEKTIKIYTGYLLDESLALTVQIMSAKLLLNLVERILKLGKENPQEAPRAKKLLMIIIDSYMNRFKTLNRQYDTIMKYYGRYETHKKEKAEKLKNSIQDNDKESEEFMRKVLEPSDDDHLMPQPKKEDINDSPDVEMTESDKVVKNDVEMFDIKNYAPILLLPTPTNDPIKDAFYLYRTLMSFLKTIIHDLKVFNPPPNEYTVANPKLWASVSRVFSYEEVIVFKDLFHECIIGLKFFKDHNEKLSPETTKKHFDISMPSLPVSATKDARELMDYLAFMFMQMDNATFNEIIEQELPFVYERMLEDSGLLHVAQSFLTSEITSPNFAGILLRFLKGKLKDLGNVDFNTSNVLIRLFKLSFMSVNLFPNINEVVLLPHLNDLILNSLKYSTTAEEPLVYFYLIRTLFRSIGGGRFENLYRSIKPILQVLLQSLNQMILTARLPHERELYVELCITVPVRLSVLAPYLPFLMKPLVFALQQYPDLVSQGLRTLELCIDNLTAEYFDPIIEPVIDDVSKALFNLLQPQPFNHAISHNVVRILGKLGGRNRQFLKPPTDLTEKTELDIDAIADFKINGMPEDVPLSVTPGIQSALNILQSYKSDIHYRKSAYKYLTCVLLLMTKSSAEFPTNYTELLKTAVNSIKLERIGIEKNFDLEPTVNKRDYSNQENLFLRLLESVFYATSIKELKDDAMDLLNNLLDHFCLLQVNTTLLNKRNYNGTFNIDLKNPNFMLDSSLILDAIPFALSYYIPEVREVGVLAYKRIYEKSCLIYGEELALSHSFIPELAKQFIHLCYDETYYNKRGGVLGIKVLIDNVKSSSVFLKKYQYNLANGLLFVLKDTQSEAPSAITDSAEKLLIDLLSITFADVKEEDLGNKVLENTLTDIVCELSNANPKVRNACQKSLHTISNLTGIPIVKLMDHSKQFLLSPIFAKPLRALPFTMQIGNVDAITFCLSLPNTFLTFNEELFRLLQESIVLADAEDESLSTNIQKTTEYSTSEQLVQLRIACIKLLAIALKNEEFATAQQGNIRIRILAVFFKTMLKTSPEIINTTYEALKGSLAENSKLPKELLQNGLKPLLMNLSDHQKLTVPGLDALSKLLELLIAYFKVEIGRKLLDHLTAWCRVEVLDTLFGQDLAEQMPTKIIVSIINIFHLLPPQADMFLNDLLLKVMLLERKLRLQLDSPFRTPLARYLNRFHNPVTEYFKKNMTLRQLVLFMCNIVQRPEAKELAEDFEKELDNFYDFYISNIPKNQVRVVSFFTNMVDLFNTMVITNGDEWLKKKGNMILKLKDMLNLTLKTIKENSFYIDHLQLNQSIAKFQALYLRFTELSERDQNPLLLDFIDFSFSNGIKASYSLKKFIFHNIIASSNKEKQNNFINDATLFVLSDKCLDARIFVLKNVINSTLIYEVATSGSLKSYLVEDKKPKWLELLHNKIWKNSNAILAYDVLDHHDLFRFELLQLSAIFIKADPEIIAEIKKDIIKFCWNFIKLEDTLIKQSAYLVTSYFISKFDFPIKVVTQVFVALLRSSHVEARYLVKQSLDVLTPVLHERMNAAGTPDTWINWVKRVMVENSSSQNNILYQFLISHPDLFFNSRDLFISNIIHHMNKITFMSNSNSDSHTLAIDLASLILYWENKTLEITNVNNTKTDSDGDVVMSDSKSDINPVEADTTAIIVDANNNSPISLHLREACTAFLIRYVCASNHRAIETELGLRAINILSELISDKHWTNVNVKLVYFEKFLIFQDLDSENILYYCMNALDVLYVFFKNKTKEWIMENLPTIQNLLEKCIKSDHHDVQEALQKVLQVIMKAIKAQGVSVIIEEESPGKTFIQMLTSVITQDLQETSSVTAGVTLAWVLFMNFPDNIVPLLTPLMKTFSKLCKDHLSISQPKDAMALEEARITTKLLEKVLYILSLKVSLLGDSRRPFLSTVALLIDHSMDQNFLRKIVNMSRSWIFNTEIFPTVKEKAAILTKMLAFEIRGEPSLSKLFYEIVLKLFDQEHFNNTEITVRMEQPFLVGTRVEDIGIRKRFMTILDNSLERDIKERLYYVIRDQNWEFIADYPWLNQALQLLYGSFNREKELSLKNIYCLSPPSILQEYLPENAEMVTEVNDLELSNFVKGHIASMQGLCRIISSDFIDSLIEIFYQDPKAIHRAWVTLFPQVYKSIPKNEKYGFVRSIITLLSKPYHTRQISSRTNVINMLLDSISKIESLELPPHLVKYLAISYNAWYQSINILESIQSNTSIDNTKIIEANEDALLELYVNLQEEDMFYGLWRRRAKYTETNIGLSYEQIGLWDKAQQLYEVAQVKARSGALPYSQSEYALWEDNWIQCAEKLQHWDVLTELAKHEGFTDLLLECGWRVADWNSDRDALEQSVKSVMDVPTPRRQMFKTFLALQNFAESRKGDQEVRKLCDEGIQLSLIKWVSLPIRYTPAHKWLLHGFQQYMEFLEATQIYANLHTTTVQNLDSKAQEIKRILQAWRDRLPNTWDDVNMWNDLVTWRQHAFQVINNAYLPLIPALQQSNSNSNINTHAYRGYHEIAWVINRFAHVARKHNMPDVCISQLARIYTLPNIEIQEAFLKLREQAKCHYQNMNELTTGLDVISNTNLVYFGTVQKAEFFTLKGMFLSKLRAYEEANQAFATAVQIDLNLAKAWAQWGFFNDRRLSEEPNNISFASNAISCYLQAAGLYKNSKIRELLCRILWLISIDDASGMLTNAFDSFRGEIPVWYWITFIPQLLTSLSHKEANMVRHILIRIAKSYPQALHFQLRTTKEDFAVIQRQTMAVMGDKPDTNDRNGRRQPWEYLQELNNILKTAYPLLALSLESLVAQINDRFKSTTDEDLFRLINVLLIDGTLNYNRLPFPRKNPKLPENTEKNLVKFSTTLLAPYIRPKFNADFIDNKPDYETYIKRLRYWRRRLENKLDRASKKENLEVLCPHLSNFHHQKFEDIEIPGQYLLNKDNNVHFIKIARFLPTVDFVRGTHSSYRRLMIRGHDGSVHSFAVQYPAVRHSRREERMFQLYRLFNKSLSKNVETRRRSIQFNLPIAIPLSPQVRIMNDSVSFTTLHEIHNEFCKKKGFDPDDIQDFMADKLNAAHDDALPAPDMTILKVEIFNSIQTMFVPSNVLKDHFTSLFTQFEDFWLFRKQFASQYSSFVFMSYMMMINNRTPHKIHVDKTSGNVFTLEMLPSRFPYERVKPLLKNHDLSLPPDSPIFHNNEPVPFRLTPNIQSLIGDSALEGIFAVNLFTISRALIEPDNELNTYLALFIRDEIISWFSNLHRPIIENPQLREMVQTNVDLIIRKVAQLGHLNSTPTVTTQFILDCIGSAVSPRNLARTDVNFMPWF
binding result [1],binding result [2],Binder
binds,binds,"Spt3 (natural protein, S. cerevisiae, UniProt P06844 1-337, looked up, Spt3, S. cerevisiae, SAGA subunit (SPT module); source: endogenous, in the native SAGA complex purified from fermented S. cerevisiae cells) MMDKHKYRVEIQQMMFVSGEINDPPVETTSLIEDIVRGQVIEILLQSNKTAHLRGSRSILPEDVIFLIRHDKAKVNRLRTYLSWKDLRKNAKDQDASAGVASGTGNPGAGGEDDLKKAGGGEKDEKDGGNMMKVKKSQIKLPWELQFMFNEHPLENNDDNDDMDEDEREANIVTLKRLKMADDRTRNMTKEEYVHWSDCRQASFTFRKNKRFKDWSGISQLTEGKPHDDVIDILGFLTFEIVCSLTETALKIKQREQVLQTQKDKSQQSSQDNTNFEFASSTLHRKKRLFDGPENVINPLKPRHIEEAWRVLQTIDMRHRALTNFKGGRLSSKPIIM"
binds,binds,"Taf12 (natural protein, S. cerevisiae, UniProt Q03761 1-539, looked up, Taf12, S. cerevisiae, SAGA subunit (TAF module); source: endogenous, in the native SAGA complex purified from fermented S. cerevisiae cells) MSSNPENSGVNANNNTGTGNADAITGAQQNMVLQPRQLQEMAAKFRTLLTEARNVGETTPRGKELMFQAAKIKQVYDALTLNRRRQQAAQAYNNTSNSNSSNPASIPTENVPNSSQQQQQQQQQTRNNSNKFSNMIKQVLTPEENQEYEKLWQNFQVRHTSIKEKETYLKQNIDRLEQEINKQTDEGPKQQLQEKKIELLNDWKVLKIEYTKLFNNYQNSKKTFYVECARHNPALHKFLQESTQQQRVQQQRVQQQQQQQQQQQQQQQQQQQQQQQRQGQNQRKISSSNSTEIPSVTGPDALKSQQQQQNTITATNNPRGNVNTSQTEQSKAKVTNVNATASMLNNISSSKSAIFKQTEPAIPISENISTKTPAPVAYRSNRPTITGGSAMNASALNTPATTKLPPYEMDTQRVMSKRKLRELVKTVGIDEGDGETVIDGDVEELLLDLADDFVTNVTAFSCRLAKHRKSDNLEARDIQLHLERNWNIRIPGYSADEIRSTRKWNPSQNYNQKLQSITSDKVAAAKNNGNNVASLNTKK"
,binds,"Taf9 (natural protein, S. cerevisiae, UniProt Q05027 1-157, looked up, Taf9, S. cerevisiae, SAGA subunit (TAF module); source: endogenous, in the native SAGA complex purified from fermented S. cerevisiae cells) MNGGGKNVLNKNSVGSVSEVGPDSTQEETPRDVRLLHLLLASQSIHQYEDQVPLQLMDFAHRYTQGVLKDALVYNDYAGSGNSAGSGLGVEDIRLAIAARTQYQFKPTAPKELMLQLAAERNKKALPQVMGTWGVRLPPEKYCLTAKEWDLEDPKSM"
